In paper PMC8519809 (Cell Reports, 2021):

Biological target: SARS-CoV-2 S-HexaPro protein (SARS-CoV-2, Wuhan-Hu-1 type, stabilised)
Assay: SPR

B1: Fab22 (Fab, V domains shown)
VH: EVQLQQPGPVLVKPGASVRMSCKASGYRITDNFMNWVKQSHGKSLEWIGIINPYNGGTKYNQKFKGKATLTVDTSSSTAYMELNSLTSEDSAVYYCTRVRGNDYHGRAMDYWGQGTSVTVSS
VL: DVVLTQTPLSLPVNIGDQASISCKSTKSLLNRDGFTFLDWYLQKPGQSPQLLIYLVSNRFSGVPDRFSGSGSGTDFTLKISRVEAEDLGVYYCFQSNYLFTFGSGTKLEIK
In the case of B1, the Kd is reported as 6.7 nM.
